Molecular target: Recombinant Cdc42 (residues 1-178) from Candida Albicans (Candida albicans) (UniProt P0CY33)
Experiment: method not stated; the complexes give no response in relaxation dispersion

Chain of Recombinant Cdc42 (residues 1-178) from Candida Albicans (Candida albicans) (P0CY33 1-178 limits assumed): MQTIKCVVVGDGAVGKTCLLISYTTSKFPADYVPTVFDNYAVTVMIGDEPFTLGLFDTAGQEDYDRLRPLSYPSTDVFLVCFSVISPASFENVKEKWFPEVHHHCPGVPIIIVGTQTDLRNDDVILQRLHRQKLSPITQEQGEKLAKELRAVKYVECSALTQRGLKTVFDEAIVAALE

| Substance | Kd [nM] |
| --- | --- |
| 40-residue CRIB domain of Candida Cla4 (peptide) | 0.5 |
| 40-residue CRIB domain of Candida Ste20 (peptide) | 0.5 |

From US20050287527A1, “Quantitative ranking of transient ligand binding to target biomolecules” (National Research Council of Canada, priority 2002, published 2005)
